Experimental data published in PMC7921410, “Structure of mammalian Mediator complex reveals Tail module architecture and interaction with a conserved core” (Nature Communications, 2021).

T1: MED7 (mouse (Mus musculus; endogenous in CH12), UniProt Q9CZB6 1-233)
T1 construct: MED7, Mus musculus, endogenous Middle module subunit of Mediator; source: endogenous, CH12 mouse B lymphoma nuclear extract; immunopurified as part of Mediator (FLAG M2 agarose, FLAG peptide elution)
T1 sequence (looked up): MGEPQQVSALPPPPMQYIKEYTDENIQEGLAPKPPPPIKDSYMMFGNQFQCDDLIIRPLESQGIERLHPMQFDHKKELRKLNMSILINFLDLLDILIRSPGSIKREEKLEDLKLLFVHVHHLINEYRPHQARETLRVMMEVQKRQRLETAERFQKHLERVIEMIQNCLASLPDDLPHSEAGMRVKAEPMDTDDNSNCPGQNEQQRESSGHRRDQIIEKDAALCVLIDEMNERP

T2: MED4 (mouse (Mus musculus; endogenous in CH12), UniProt Q9CQA5 1-270)
T2 construct: MED4, Mus musculus, endogenous Middle module subunit of Mediator; source: endogenous, CH12 mouse B lymphoma nuclear extract; immunopurified as part of Mediator (FLAG M2 agarose, FLAG peptide elution)
T2 sequence (looked up): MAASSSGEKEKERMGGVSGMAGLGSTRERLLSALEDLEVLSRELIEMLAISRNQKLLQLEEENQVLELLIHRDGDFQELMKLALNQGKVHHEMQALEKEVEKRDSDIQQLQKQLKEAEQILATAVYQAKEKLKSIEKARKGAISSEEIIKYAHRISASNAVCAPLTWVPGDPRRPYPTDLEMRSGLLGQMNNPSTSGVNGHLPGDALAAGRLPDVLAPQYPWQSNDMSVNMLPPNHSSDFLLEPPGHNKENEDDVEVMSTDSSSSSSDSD


How the values were obtained:
Assay in all cases: cryo-EM structure; endogenous mouse Mediator immunopurified from CH12 nuclear extract through 3×FLAG-MED19 or 3×FLAG-MED25; eluted in 50 mM HEPES pH 7.9, 100 mM KCl, 5% glycerol, 1 mM EDTA, 0.005% NP-40; map at 4.0 Å overall, focused refinement of the MED1 and knob/hook ends (6-10 Å)
Settings in all cases: both partners purified
[1] = molecular target: T1, MED7
[2] = molecular target: T3, MED1 (mouse (Mus musculus; endogenous in CH12), UniProt Q925J9 1-1575)
T3 construct: MED1, Mus musculus, endogenous Middle module subunit of Mediator; only a partial model of the folded N-terminal portion was built; Partial model only; this part of the map is at about 6-8 Å; also called Mediator subunit MED1; source: endogenous, CH12 mouse B lymphoma nuclear extract; immunopurified as part of Mediator (FLAG M2 agarose, FLAG peptide elution)
T3 sequence (Q925J9 whole entry): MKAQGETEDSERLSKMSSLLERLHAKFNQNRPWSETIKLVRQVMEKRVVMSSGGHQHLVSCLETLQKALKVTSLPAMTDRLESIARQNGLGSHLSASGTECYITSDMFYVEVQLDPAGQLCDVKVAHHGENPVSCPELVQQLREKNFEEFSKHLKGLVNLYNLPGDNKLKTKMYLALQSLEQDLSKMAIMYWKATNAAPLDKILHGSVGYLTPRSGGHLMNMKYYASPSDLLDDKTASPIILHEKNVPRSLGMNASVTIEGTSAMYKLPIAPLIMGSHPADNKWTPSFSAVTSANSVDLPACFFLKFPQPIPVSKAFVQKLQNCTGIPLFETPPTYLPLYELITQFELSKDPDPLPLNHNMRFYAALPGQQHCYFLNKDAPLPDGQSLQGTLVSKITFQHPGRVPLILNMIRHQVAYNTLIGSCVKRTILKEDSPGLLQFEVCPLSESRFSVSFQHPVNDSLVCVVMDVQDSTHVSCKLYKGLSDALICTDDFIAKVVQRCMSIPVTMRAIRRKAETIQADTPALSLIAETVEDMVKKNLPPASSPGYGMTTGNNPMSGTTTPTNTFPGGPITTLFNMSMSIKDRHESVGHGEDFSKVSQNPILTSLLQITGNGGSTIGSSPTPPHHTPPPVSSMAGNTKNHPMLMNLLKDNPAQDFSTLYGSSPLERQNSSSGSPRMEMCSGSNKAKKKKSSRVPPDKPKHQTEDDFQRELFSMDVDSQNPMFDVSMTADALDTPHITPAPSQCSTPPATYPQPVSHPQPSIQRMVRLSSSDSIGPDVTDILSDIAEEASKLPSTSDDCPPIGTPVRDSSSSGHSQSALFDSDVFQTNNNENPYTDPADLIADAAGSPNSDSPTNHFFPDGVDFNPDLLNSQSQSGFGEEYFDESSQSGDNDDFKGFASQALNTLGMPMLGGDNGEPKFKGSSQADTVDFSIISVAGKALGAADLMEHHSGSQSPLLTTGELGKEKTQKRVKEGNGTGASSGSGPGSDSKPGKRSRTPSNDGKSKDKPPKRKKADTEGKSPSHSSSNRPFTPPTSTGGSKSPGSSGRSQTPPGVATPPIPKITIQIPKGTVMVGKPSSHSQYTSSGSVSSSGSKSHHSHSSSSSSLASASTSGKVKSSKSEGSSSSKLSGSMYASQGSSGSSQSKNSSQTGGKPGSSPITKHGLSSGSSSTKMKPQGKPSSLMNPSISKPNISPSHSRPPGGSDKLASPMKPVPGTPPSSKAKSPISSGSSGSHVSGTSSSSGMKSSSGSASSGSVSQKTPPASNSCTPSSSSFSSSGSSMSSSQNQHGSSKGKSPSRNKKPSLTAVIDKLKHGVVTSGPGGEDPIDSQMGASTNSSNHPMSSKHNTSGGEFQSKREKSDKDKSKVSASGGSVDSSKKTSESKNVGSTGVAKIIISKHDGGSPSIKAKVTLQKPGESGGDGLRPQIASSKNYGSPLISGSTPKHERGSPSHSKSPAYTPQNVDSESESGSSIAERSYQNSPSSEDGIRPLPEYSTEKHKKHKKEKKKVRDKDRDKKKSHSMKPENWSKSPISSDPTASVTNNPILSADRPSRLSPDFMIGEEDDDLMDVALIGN

[3] = molecular target: T2, MED4

Row | binding result [1] | binding result [2] | binding result [3] | Binder
1 | binds |  |  | MED21 (natural protein, mouse (Mus musculus; endogenous in CH12), UniProt Q9CQ39 1-144, looked up, MED21, Mus musculus, endogenous Middle module subunit of Mediator; source: endogenous, CH12 mouse B lymphoma nuclear extract; immunopurified as part of Mediator (FLAG M2 agarose, FLAG peptide elution)) MADRLTQLQDAVNSLADQFCNAIGVLQQCGPPASFSNIQTAINKDQPANPTEEYAQLFAALIARTAKDIDVLIDSLPSEESTAALQAASLYKLEEENHEAATCLEDVVYRGDMLLEKIQSALADIAQSQLKTRSVTHSHSLPDS
2 |  | binds | binds | MED9 (natural protein, mouse (Mus musculus; endogenous in CH12), UniProt Q8VCS6 1-142, looked up, MED9, Mus musculus, endogenous Middle module subunit of Mediator; source: endogenous, CH12 mouse B lymphoma nuclear extract; immunopurified as part of Mediator (FLAG M2 agarose, FLAG peptide elution)) MASSGVAGGRQAEDTLQPPPELLPESKPPPPPQPLPVAALPPPAAPRPQSPAGAKEENYSFLPLVHNVIKCMDKDSPDLHQDLNALKTKFQELRKLIGTMPGIHVSPEQQQQQLHSLREQVRTKNELLQKYKSLCMFEIPKD
